According to patent US20260176319A1 (KALLYOPE, published 2026):
One block for each binder: values may come before it. Starred links: 1 amine or outer side, 2 acyl side, 3 side chain; linkers in the order of their positions; H or OH if unused. Non-standard residues stand in square brackets, D forms with d. *: point of attachment. Trp(7-Me) = Cc1cccc2c(C[C@H](N)C(=O)O)c[nH]c12; C18 diacid = O=C(O)CCCCCCCCCCCCCCCCC(=O)*; γGlu = O=C(O)[C@H](CCC(=O)[*:2])N[*:1]; Palmitoyl = CCCCCCCCCCCCCCCC(=O)*; Nle = CCCC[C@H](N)C(=O)O; AEEA = NCCOCCOCC(=O)O; Sar = CNCC(=O)O

Biological target: human GRP receptor (human, UniProt P30550 1-384)
Sequence (P30550 whole entry): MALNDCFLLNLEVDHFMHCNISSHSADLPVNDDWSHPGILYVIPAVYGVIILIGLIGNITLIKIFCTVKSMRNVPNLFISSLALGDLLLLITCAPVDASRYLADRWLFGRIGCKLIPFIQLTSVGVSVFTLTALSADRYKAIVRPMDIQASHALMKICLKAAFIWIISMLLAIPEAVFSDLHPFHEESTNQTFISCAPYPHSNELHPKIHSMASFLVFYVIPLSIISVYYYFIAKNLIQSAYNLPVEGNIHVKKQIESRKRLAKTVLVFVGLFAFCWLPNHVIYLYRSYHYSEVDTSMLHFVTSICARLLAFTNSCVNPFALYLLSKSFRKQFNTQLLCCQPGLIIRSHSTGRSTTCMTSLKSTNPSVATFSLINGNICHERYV
Test: cell-based or functional assay

hIP1 GRPR EC50: 0.00802 µM
B1: Peptide 118 (peptide)
peptide: {C18 diacid}-[γGlu][AEEA][AEEA][AEEA][AEEA]GRHWAV[dA]HL[Nle]-NH2
SMILES: CCCC[C@H](NC(=O)[C@H](CC(C)C)NC(=O)[C@H](Cc1c[nH]cn1)NC(=O)[C@@H](C)NC(=O)[C@@H](NC(=O)[C@H](C)NC(=O)[C@H](Cc1c[nH]c2ccccc12)NC(=O)[C@H](Cc1c[nH]cn1)NC(=O)[C@H](CCCNC(=N)N)NC(=O)CNC(=O)COCCOCCNC(=O)COCCOCCNC(=O)COCCOCCNC(=O)COCCOCCNC(=O)CC[C@H](NC(=O)CCCCCCCCCCCCCCCCC(=O)O)C(=O)O)C(C)C)C(N)=O

hIP1 GRPR EC50: 0.0165 µM
B3: Peptide 117 (peptide)
peptide: {C18 diacid}-[γGlu][AEEA][AEEA][AEEA][AEEA]GRH[Trp(7-Me)]AV[dA]HL[Nle]-NH2
SMILES: CCCC[C@H](NC(=O)[C@H](CC(C)C)NC(=O)[C@H](Cc1c[nH]cn1)NC(=O)[C@@H](C)NC(=O)[C@@H](NC(=O)[C@H](C)NC(=O)[C@H](Cc1c[nH]c2c(C)cccc12)NC(=O)[C@H](Cc1c[nH]cn1)NC(=O)[C@H](CCCNC(=N)N)NC(=O)CNC(=O)COCCOCCNC(=O)COCCOCCNC(=O)COCCOCCNC(=O)COCCOCCNC(=O)CC[C@H](NC(=O)CCCCCCCCCCCCCCCCC(=O)O)C(=O)O)C(C)C)C(N)=O

hIP1 GRPR EC50: > 10 µM
B5: Peptide 116 (peptide)
peptide: {C18 diacid}-[γGlu][AEEA][AEEA]GRHHAV[dA]HL[Nle]-NH2
SMILES: CCCC[C@H](NC(=O)[C@H](CC(C)C)NC(=O)[C@H](Cc1c[nH]cn1)NC(=O)[C@@H](C)NC(=O)[C@@H](NC(=O)[C@H](C)NC(=O)[C@H](Cc1c[nH]cn1)NC(=O)[C@H](Cc1c[nH]cn1)NC(=O)[C@H](CCCNC(=N)N)NC(=O)CNC(=O)COCCOCCNC(=O)COCCOCCNC(=O)CC[C@H](NC(=O)CCCCCCCCCCCCCCCCC(=O)O)C(=O)O)C(C)C)C(N)=O

The next lines start with the binder.

B2: Peptide 112 (peptide)
peptide: Palmitoyl-[γGlu][AEEA][AEEA]GNH[Trp(7-Me)]AV[dA]HL[Nle][Sar]-NH2
SMILES: CCCCCCCCCCCCCCCC(=O)N[C@@H](CCC(=O)NCCOCCOCC(=O)NCCOCCOCC(=O)NCC(=O)N[C@@H](CC(N)=O)C(=O)N[C@@H](Cc1c[nH]cn1)C(=O)N[C@@H](Cc1c[nH]c2c(C)cccc12)C(=O)N[C@@H](C)C(=O)N[C@H](C(=O)N[C@H](C)C(=O)N[C@@H](Cc1c[nH]cn1)C(=O)N[C@@H](CC(C)C)C(=O)N[C@@H](CCCC)C(=O)N(C)CC(N)=O)C(C)C)C(=O)O
hIP1 GRPR EC50: > 10 µM

B4: Peptide 114 (peptide)
peptide: {C18 diacid}-[γGlu][AEEA][AEEA]GNHWAV[dA]HL[Nle]R-NH2
SMILES: CCCC[C@H](NC(=O)[C@H](CC(C)C)NC(=O)[C@H](Cc1c[nH]cn1)NC(=O)[C@@H](C)NC(=O)[C@@H](NC(=O)[C@H](C)NC(=O)[C@H](Cc1c[nH]c2ccccc12)NC(=O)[C@H](Cc1c[nH]cn1)NC(=O)[C@H](CC(N)=O)NC(=O)CNC(=O)COCCOCCNC(=O)COCCOCCNC(=O)CC[C@H](NC(=O)CCCCCCCCCCCCCCCCC(=O)O)C(=O)O)C(C)C)C(=O)N[C@@H](CCCNC(=N)N)C(N)=O
hIP1 GRPR EC50: > 10 µM

B6: Peptide 115 (peptide)
peptide: {C18 diacid}-[γGlu][AEEA][AEEA]GNHW[dA]V[dA]HL[Nle][Sar]-NH2
SMILES: CCCC[C@H](NC(=O)[C@H](CC(C)C)NC(=O)[C@H](Cc1c[nH]cn1)NC(=O)[C@@H](C)NC(=O)[C@@H](NC(=O)[C@@H](C)NC(=O)[C@H](Cc1c[nH]c2ccccc12)NC(=O)[C@H](Cc1c[nH]cn1)NC(=O)[C@H](CC(N)=O)NC(=O)CNC(=O)COCCOCCNC(=O)COCCOCCNC(=O)CC[C@H](NC(=O)CCCCCCCCCCCCCCCCC(=O)O)C(=O)O)C(C)C)C(=O)N(C)CC(N)=O
hIP1 GRPR EC50: > 10 µM
